Measured values reported in patent US8637739B2, “Anti-nematode peptides and methods of use thereof” (Pioneer Hi Bred International Inc, priority 2011, dated 2014).

Tested on: C. elegans
Test: C. elegans feeding assay
Type: in vivo, Caenorhabditis elegans
Description: The 75G5 strain was obtained from a biodiverse collection of bacterial strains. The strain was grown in Tryptic soy medium overnight at 20° C., with shaking at 225 rpm. 5 to 30 μL of the liquid culture was added into assay wells in 96-well plates. Each assay well contained 120 μL of liquid with ˜50 L1 staged C. elegans, 30 μg/mL tetracycline, 30 μg/mL chloramphenicol, and S-medium. E. coli strain OP50 was used as a negative control. Forty-eight hours later, the assay plates were scored under a microscope by checking the worm's growth and development.
To further characterize the nematicidal activity, the 75G5 strain was cultured in 50 ml Tryptic soy medium at 20° C. for 18 h, with 225 rpm shaking. The cell pellet was collected after centrifugation at 700 rpm and then stored at −80 C. Total protein was extracted from the cell pellet using the B-PER II Bacterial Protein Extraction Reagent from Thermo. The lysate was centrifuged twice at 10,000 rpm and the final supernatant was collected as the total protein sample.
The expression constructs were then transformed into E. coli TOP10 strain with carbenicillin selection. For protein expression, an E. coli overnight culture was diluted by 50 fold and grown at 37° C. for 2.5 hours (to OD600 ˜0.5). Protein expression was induced by adding 0.8 mM IPTG and the culture was grown for another 5 hours at 30° C. […]

B1: RX025: small, active 25 kDa Sphingobacterium spiritivorum protein; putative twin arginine translocation pathway signal protein (protein, listed as Sphingobacterium spiritivorum)
chain: MHRREALQRVALLMGGTVIGANLFLEGCSRSASKDTAKLFEKDSVNFLGDLAEAILPKTSTPGAKEAGVGEFIPVMIRDCYADTEQKVFLDGINTVDERAKKEFGKKFQELSKEDQTKFVNILDKEASEYNAKQAEATKAQREKDALKQNEMYRVPKSDPPHWFTMFKQLTLTGFFTSELGATKALRYVKIPGKFDGNYPYKKGEHAWA
nematicidal activity (worm development) (E. coli TOP10 strains expressing the RX025 gene from pMAL (MBP fusion) and pQE80L, IPTG induced): inhibited worm development, arresting worms at the L1 stage | nematicidal activity of purified protein bands (proteins in pooled Mono Q/Mono S fractions of strain 75G5 membrane associated proteins): active
